According to the Immune Epitope Database (IEDB):

Tests used:
HLA-A*02:03 = experiment: IEDB peptide-MHC binding, purified MHC/competitive/radioactivity; filed as Kd, often an IC50 or EC50 that approximates it; ≥ and ≤ were set here for values at or beyond the usual limits of such assays
HLA-A*02:06 = experiment: as above
HLA-A*02:17 = experiment: as above
HLA-A*02:01 [1] = experiment: as above
HLA-B*08:02 = experiment: IEDB peptide-MHC binding, purified MHC/direct/fluorescence; filed as Kd, often an IC50 or EC50 that approximates it; ≥ and ≤ were set here for values at or beyond the usual limits of such assays
HLA-A*11:01 [2] = experiment: as above
HLA-A*03:01 [3] = experiment: as above
HLA-A*31:01 [4] = experiment: IEDB peptide-MHC binding, purified MHC/competitive/fluorescence; filed as Kd, often an IC50 or EC50 that approximates it; ≥ and ≤ were set here for values at or beyond the usual limits of such assays
HLA-A*26:01 [5] = experiment: IEDB peptide-MHC binding, purified MHC/competitive/radioactivity; filed as Kd, often an IC50 or EC50 that approximates it; ≥ and ≤ were set here for values at or beyond the usual limits of such assays; conditions: source organism: Dengue virus 3 Martinique/1243/1999
HLA-B*27:05 = experiment: IEDB peptide-MHC binding, purified MHC/direct/fluorescence; filed as Kd, often an IC50 or EC50 that approximates it; ≥ and ≤ were set here for values at or beyond the usual limits of such assays; conditions: source organism: Camelpox virus M-96
HLA-B*58:01 = experiment: as above; conditions: source organism: Camelpox virus M-96
HLA-B*15:17 = experiment: as above; conditions: source organism: Camelpox virus M-96
HLA-B*48:01 = experiment: as above; conditions: source organism: Camelpox virus M-96
HLA-A*02:01 [6] = experiment: as above
HLA-A*01:01 = experiment: as above; conditions: source organism: Camelpox virus M-96
HLA-A*31:01 [7] = experiment: as above; conditions: source organism: Camelpox virus M-96
HLA-B*40:01 = experiment: as above; conditions: source organism: Camelpox virus M-96
HLA-B*46:01 = experiment: as above
HLA-A*69:01 = experiment: IEDB peptide-MHC binding, purified MHC/competitive/fluorescence; filed as Kd, often an IC50 or EC50 that approximates it; ≥ and ≤ were set here for values at or beyond the usual limits of such assays; conditions: source organism: Vaccinia virus Copenhagen
HLA-A*11:01 [8] = experiment: as above
HLA-B*15:01 [9] = experiment: as above; conditions: source organism: Vaccinia virus Copenhagen
HLA-B*57:01 [10] = experiment: as above; conditions: source organism: Vaccinia virus Copenhagen
HLA-B*07:02 = experiment: IEDB peptide-MHC binding, purified MHC/competitive/fluorescence; ≥ and ≤ were set here for values at or beyond the usual limits of such assays
HLA-A*11:01 [11] = experiment: as above; conditions: source organism: Zaire ebolavirus
HLA-A*03:01 [12] = experiment: as above; conditions: source organism: Zaire ebolavirus
HLA-A*03:01 [13] = experiment: IEDB peptide-MHC binding, purified MHC/competitive/fluorescence; filed as Kd, often an IC50 or EC50 that approximates it; ≥ and ≤ were set here for values at or beyond the usual limits of such assays; conditions: source organism: Escherichia coli 536
HLA-B*08:01 = experiment: IEDB peptide-MHC binding, purified MHC/competitive/radioactivity; filed as Kd, often an IC50 or EC50 that approximates it; ≥ and ≤ were set here for values at or beyond the usual limits of such assays
HLA-A*26:01 [14] = experiment: IEDB peptide-MHC binding, purified MHC/direct/fluorescence; filed as Kd, often an IC50 or EC50 that approximates it; ≥ and ≤ were set here for values at or beyond the usual limits of such assays; conditions: source organism: Brucella suis 1330
HLA-A*02:16 = experiment: as above; conditions: source organism: Brucella suis 1330
HLA-B*18:01 = experiment: as above; conditions: source organism: Brucella suis 1330
HLA-B*15:01 [15] = experiment: as above; conditions: source organism: Brucella suis 1330
HLA-A*02:12 = experiment: as above; conditions: source organism: Brucella suis 1330
HLA-A*02:19 = experiment: as above; conditions: source organism: Brucella suis 1330
HLA-B*57:01 [16] = experiment: as above; conditions: source organism: Brucella suis 1330
HLA-B*51:01 = experiment: as above; conditions: source organism: Brucella suis 1330
HLA-A*24:02 = experiment: IEDB peptide-MHC binding, purified MHC/competitive/fluorescence; ≥ and ≤ were set here for values at or beyond the usual limits of such assays
HLA-B*15:01 [17] = experiment: as above; conditions: source organism: Vaccinia virus Copenhagen
HLA-C*06:02 = experiment: IEDB peptide-MHC binding, purified MHC/direct/fluorescence; filed as Kd, often an IC50 or EC50 that approximates it; ≥ and ≤ were set here for values at or beyond the usual limits of such assays; conditions: source organism: Burkholderia mallei ATCC 23344
HLA-A*02:01 [18] = experiment: IEDB peptide-MHC binding, purified MHC/competitive/fluorescence; filed as Kd, often an IC50 or EC50 that approximates it; ≥ and ≤ were set here for values at or beyond the usual limits of such assays
HLA-A*02:01 [19] = experiment: IEDB peptide-MHC binding, purified MHC/competitive/fluorescence; ≥ and ≤ were set here for values at or beyond the usual limits of such assays; conditions: source organism: Zaire ebolavirus
HLA-A*23:01 = experiment: IEDB peptide-MHC binding, purified MHC/competitive/fluorescence; filed as Kd, often an IC50 or EC50 that approximates it; ≥ and ≤ were set here for values at or beyond the usual limits of such assays
HLA-B*15:01 [20] = experiment: IEDB peptide-MHC binding, purified MHC/competitive/radioactivity; filed as Kd, often an IC50 or EC50 that approximates it; ≥ and ≤ were set here for values at or beyond the usual limits of such assays; conditions: source organism: Dengue virus 3 Martinique/1243/1999
[21] = source organism: Dengue virus 2 Jamaica/1409/1983
[22] = source organism: Camelpox virus M-96
[23] = source organism: Vaccinia virus Copenhagen
[24] = source organism: Zaire ebolavirus
[25] = source organism: Escherichia coli 536
[26] = source organism: Influenza A virus (A/Goose/Hong Kong/385.3/2000(H5N1))
[27] = source organism: Dengue virus 1 Singapore/S275/1990
[28] = source organism: Dengue virus 2 16681-PDK53
[29] = source organism: Dengue virus 2 Thailand/NGS-C/1944
[30] = source organism: Brucella suis 1330
[31] = source organism: Mycobacterium tuberculosis
[32] = source organism: Burkholderia mallei ATCC 23344
[33] = source organism: Dengue virus 4 Philippines/H241/1956
[34] = source organism: Giardia lamblia ATCC 50803
[35] = source organism: Dengue virus 3 Martinique/1243/1999

In the case of AIYGAAFSGV, the Kd (HLA-A*02:03; [21]) is reported as 0.0086 µM, the Kd (HLA-A*02:06; [21]) is reported as 0.00457 µM and the Kd (HLA-A*02:17; [21]) is reported as 0.627 µM. It also gave a Kd (HLA-A*02:01 [1]; [21]) of 0.00105 µM.

DLKRKFYTL was tested, and the Kd (HLA-B*08:02; source organism: Campylobacter jejuni subsp. jejuni 81116) was 0.154 µM.

DVNGIRKPK showed a Kd (HLA-A*11:01 [2]; source organism: Amur virus) of no less than 20 µM, a Kd (HLA-A*03:01 [3]; source organism: Amur virus) of no less than 20 µM and a Kd (HLA-A*31:01 [4]; source organism: Orthohantavirus dobravaense) of no less than 20 µM.

For ELKGMSYAM, the Kd (HLA-A*26:01 [5]) was 1.74 µM and the Kd (HLA-B*08:02; source organism: dengue virus type 3) was no less than 20 µM.

Work on FTENGPWMY yielded a Kd (HLA-B*27:05) of no less than 20 µM, a Kd (HLA-B*08:02; source organism: Variola virus) of no less than 20 µM and a Kd (HLA-B*58:01) of no less than 20 µM. For the same sequence, the Kd (HLA-B*15:17) was 0.0052 µM, the Kd (HLA-B*48:01) was no less than 20 µM and the Kd (HLA-A*02:01 [6]; [22]) was no less than 20 µM. The Kd (HLA-A*01:01) was 0.0027 µM, the Kd (HLA-A*03:01 [3]; [22]) was no less than 20 µM and the Kd (HLA-A*31:01 [7]) was no less than 20 µM. It also gave a Kd (HLA-B*40:01) of no less than 20 µM, a Kd (HLA-B*46:01; [22]) of no less than 20 µM and a Kd (HLA-A*69:01) of no less than 20 µM. For the same sequence, the Kd (HLA-A*11:01 [8]; [23]) was no less than 20 µM, the Kd (HLA-B*15:01 [9]) was no less than 20 µM and the Kd (HLA-B*57:01 [10]) was no less than 20 µM.

With GIRGFPRCR the IC50 (HLA-B*07:02; [24]) was no less than 451 µM, the IC50 (HLA-A*11:01 [11]) was 42.1 µM and the IC50 (HLA-A*03:01 [12]) was 1.06 µM.

For GMSSRAIAR, the Kd (HLA-A*03:01 [13]) was 0.015 µM and the Kd (HLA-A*31:01 [4]; [25]) was 0.0085 µM.

With GPAAEGIYI the IC50 (HLA-B*07:02; [24]) was 60.4 µM.

With IIAARNIVR the Kd (HLA-A*11:01 [2]; [26]) was no less than 20 µM, the Kd (HLA-A*03:01 [3]; [26]) was 1.54 µM and the Kd (HLA-A*31:01 [4]; source organism: Influenza A virus H3N2) was 0.00363 µM.

KTYFEKVERLK gave a Kd (HLA-A*11:01 [8]; source organism: Influenza A virus (A/swine/Scotland/410440/94(H1N2))) of 0.0287 µM.

In the case of LLFKTSVGV, the Kd (HLA-A*02:03; [27]) is reported as 0.00908 µM, the Kd (HLA-A*02:17; [27]) is reported as 0.0903 µM and the Kd (HLA-A*02:01 [1]; [27]) is reported as 0.00322 µM.

LPAAPDGIR was tested, and the IC50 (HLA-B*07:02; [24]) was 54.7 µM.

LQMENKAWLV was tested, and the Kd (HLA-A*02:06; [28]) was 0.00117 µM, the Kd (HLA-A*02:17; [29]) was 0.142 µM and the Kd (HLA-A*02:01 [1]; [29]) was 0.0101 µM. It also gave a Kd (HLA-B*08:01; [28]) of 6.75 µM.

With MRIGSMATL the Kd (HLA-A*26:01 [14]) was no less than 20 µM, the Kd (HLA-A*02:16) was no less than 20 µM and the Kd (HLA-B*18:01) was no less than 20 µM. For the same sequence, the Kd (HLA-A*02:01 [6]; [30]) was no less than 20 µM, the Kd (HLA-B*15:01 [15]) was no less than 20 µM and the Kd (HLA-A*02:12) was no less than 20 µM. For the same sequence, the Kd (HLA-A*02:19) was no less than 20 µM, the Kd (HLA-B*57:01 [16]) was no less than 20 µM and the Kd (HLA-A*03:01 [3]; [30]) was no less than 20 µM. For the same sequence, the Kd (HLA-B*46:01; [30]) was no less than 20 µM and the Kd (HLA-B*51:01) was no less than 20 µM.

RIPNSLHSL showed an IC50 (HLA-B*07:02; [23]) of 37.2 µM, an IC50 (HLA-A*24:02; [23]) of 0.656 µM and an IC50 (HLA-B*15:01 [17]) of 22.7 µM.

With RLNFFTPTK the Kd (HLA-A*11:01 [2]; [31]) was 0.0031 µM, the Kd (HLA-A*03:01 [3]; [31]) was 0.0059 µM and the Kd (HLA-A*31:01 [4]; source organism: Mycobacterium tuberculosis variant bovis BCG str. Pasteur 1173P2) was 0.0023 µM.

With RLRRRRHPL the Kd (HLA-B*08:02; [32]) was 1.19 µM, the Kd (HLA-C*06:02) was no less than 20 µM and the Kd (HLA-A*02:01 [18]; [32]) was no less than 20 µM.

RMVLAFITFL showed a Kd (HLA-A*02:17; [33]) of 0.00176 µM and a Kd (HLA-A*02:01 [1]; [33]) of 0.00325 µM.

RVHSFFIQY gave a Kd (HLA-A*11:01 [2]; [34]) of no more than 0.001 µM, a Kd (HLA-A*03:01 [3]; [34]) of 0.0681 µM and a Kd (HLA-A*31:01 [4]; [34]) of 0.161 µM.

Work on SSFQDILLR yielded a Kd (HLA-A*03:01 [3]; source organism: Influenza A virus (A/Memphis/14/1998(H3N2))) of no less than 20 µM and a Kd (HLA-A*31:01 [4]; source organism: Influenza A virus (A/X-31(H3N2))) of 0.309 µM.

Sequence SSSPQPKKK has a Kd (HLA-A*11:01 [8]; source organism: Homo sapiens) of 0.554 µM.

Work on TELRTFSIL yielded an IC50 (HLA-B*07:02; [24]) of 50.3 µM, an IC50 (HLA-A*24:02; [24]) of 8.43 µM and an IC50 (HLA-A*02:01 [19]) of no less than 395 µM.

With TFYAEFPKK the Kd (HLA-A*23:01; source organism: Escherichia coli F11) was 0.0662 µM.

TLGMCCIITA was tested, and the Kd (HLA-A*02:17; [21]) was 16.9 µM and the Kd (HLA-A*02:01 [1]; [21]) was 0.0674 µM.

For TVKRYLQAK, the Kd (HLA-A*03:01 [13]) was 2.84 µM and the Kd (HLA-A*31:01 [4]; [25]) was 0.0557 µM.

Work on WYMRALYQK yielded a Kd (HLA-A*23:01; source organism: Entamoeba histolytica HM-1:IMSS) of 0.388 µM.

YARLRKEVL was tested, and the Kd (HLA-B*08:02; [34]) was 0.35 µM and the Kd (HLA-A*02:01 [18]; [34]) was no less than 20 µM.

YQLWTALISL was tested, and the Kd (HLA-A*02:06; [35]) was 0.00175 µM, the Kd (HLA-A*02:17; [35]) was 0.104 µM and the Kd (HLA-A*02:01 [1]; [35]) was 0.0188 µM. For the same sequence, the Kd (HLA-B*15:01 [20]) was 0.00562 µM and the Kd (HLA-B*08:01; [35]) was 1.32 µM.
